The results in this text go back to patent publication US12076390 (Dana-Farber, dated 2024).

Experiment [1] deals with HA of A/Vietnam/1203/04 on pseudotyped virus (H5-VN04 pseudovirus) (influenza A virus A/Vietnam/1203/04 …). The experiment can be described thus: cell-based or functional assay.
The target in experiment [2] is HA on infectious virus A/Brisbane/10/07 (H3N2-BR07) (influenza A virus A/Brisbane/10/07 …). The experiment can be described thus: cell-based or functional assay.
Experiment [3] has as its target Cell surface-expressed HA of A/Aichi/2/68 (H3-A2/68) (influenza A virus A/Aichi/2/68 (H3N2), UniProt P03437 17-566). The experiment can be described thus: flow cytometry on HA-transfected cells. (In general: In flow cytometry, cells or beads pass a laser one at a time.)
In experiment [4] the target is DTT reduced, trimeric HA2 (tHA2) of surface-expressed H3-A2/68 (influenza A virus A/Aichi/2/68 (H3N2), UniProt P03437 346-566). The experiment can be described thus: flow cytometry on HA-transfected cells after trypsin, pH 4.9 and DTT.
Experiment [5] deals with Recombinant full length HA of H1 A/Solomon Islands/3/06 (H1-SI06) (influenza A virus A/Solomon …). The experiment can be described thus: recombinant HA; footnote says SPR biosensor, methods describe BLI. On the technique in general: SPR reads the build-up and loss of mass on a sensor chip optically.
Experiment [6] deals with Recombinant full length HA of H1 A/Puerto Rico/8/34 (H1-PR8) (influenza A virus A/Puerto Rico/8/34 …, UniProt P03452 18-565). The experiment is described as above.
The target in experiment [7] is Recombinant full length HA of H14 A/mallard/Astrakhan/263/82 (H14-AS82) (influenza A virus …, UniProt P26136 18-568). Described as above.

The term Kd denotes the concentration at which binding is half-saturated.

B1: 3I14 IgG1 (antibody, V domains shown)
VH: QVQLLESGGGVVQPGRSLRLSCAASGFTFSNYGMHWVRQAPGKGLEWVAIISFDGSKKYYANSVKGRSTISRDNSKNTLSLQMNSLGPEDTALYYCAKLPSPYYFDSRFVWVAASAFHFWGQGILVTVSS
VL: NFMLTQPPSASGTPGQRVTISCSGSSSNIGGNTVHWFQQLPGTAPKLLIYTNSLRPSGVPDRFSGSKSGTSASLAISGLQSEDEADYYCAAWDDSLNGQVFGGGTKLTVL
As to B1, the “IC50, neutralization of H5-VN04 pseudovirus” value in experiment [1] stood at 0.0816 µg/mL. Besides, the “IC50, neutralization of pseudovirus” value in experiment [1] was found to be 2.14 µg/mL. Further, the “IC50, neutralization of infectious H3-BR07 virus” value in experiment [2] is 0.305 µg/mL. The binding result in experiment [3] is listed as “binds”; in experiment [4], “no binding”. The Kd in experiment [5] came to 0.03 nM; in experiment [6], 0.08 nM; in experiment [7] it was 0.29 nM.
